Results as given in patent publication US20030113892A1.
No end group written: not given here.

B1: birtoxin (peptide)
chain: ADVPGNYPLDKDGNTYKCFLLGGNEECLNVCKLHGVQYGYCYASKCWCEYLEDDKDVS
modifications: also: three disulfide bridges, pairings not given here

Key:
[1] = molecular target: rat brain synaptosomes (voltage-gated sodium channel, receptor site 3) (rat)
[2] = molecular target: rat brain synaptosomes (voltage-gated sodium channel, receptor site 3) (rat); experiment: cell-based or functional assay

Row | Molecule | EC50 [1] [nM] | enhancement of [3H] BTX binding to rat brain synaptosomes [2] [fold]
1 | uctoxin (peptide) | 60 | 2
2 | B1 | 5 | 4.32
